{"source": "paper PMC2756985", "about": "(Biochemistry, 2009)", "molecules": {"B1": {"name": "EcDos: Escherichia coli Dos, heme-regulated phosphodiesterase (protein, UniProt P76129 1-799, looked up)", "Oxygen sensor protein DosP": "MKLTDADNAADGIFFPALEQNMMGAVLINENDEVMFFNPAAEKLWGYKREEVIGNNIDMLIPRDLRPAHPEYIRHNREGGKARVEGMSRELQLEKKDGSKIWTRFALSKVSAEGKVYYLALVRDASVEMAQKEQTRQLIIAVDHLDRPVIVLDPERHIVQCNRAFTEMFGYCISEASGMQPDTLLNIPEFPADNRIRLQQLLWKTARDQDEFLLLTRTGEKIWIKASISPVYDVLAHLQNLVMTFSDITEERQIRQLEGNILAAMCSSPPFHEMGEIICRNIESVLNESHVSLFALRNGMPIHWASSSHGAEIQNAQSWSATIRQRDGAPAGILQIKTSSGAETSAFIERVADISQHMAALALEQEKSRQHIEQLIQFDPMTGLPNRNNLHNYLDDLVDKAVSPVVYLIGVDHIQDVIDSLGYAWADQALLEVVNRFREKLKPDQYLCRIEGTQFVLVSLENDVSNITQIADELRNVVSKPIMIDDKPFPLTLSIGISYDLGKNRDYLLSTAHNAMDYIRKNGGNGWQFFSPAMNEMVKERLVLGAALKEAISNNQLKLVYQPQIFAETGELYGIEALARWHDPLHGHVPPSRFIPLAEEIGEIENIGRWVIAEACRQLAEWRSQNIHIPALSVNLSALHFRSNQLPNQVSDAMHAWGIDGHQLTVEITESMMMEHDTEIFKRIQILRDMGVGLSVDDFGTGFSGLSRLVSLPVTEIKIDKSFVDRCLTEKRILALLEAITSIGQSLNLTVVAEGVETKEQFEMLRKIHCRVIQGYFFSRPLPAEEIPGWMSSVLPLKI"}, "B2": {"name": "Bovine Mb: bovine myoglobin (protein, UniProt P02192 2-154, looked up)", "Myoglobin": "GLSDGEWQLVLNAWGKVEADVAGHGQEVLIRLFTGHPETLEKFDKFKHLKTEAEMKASEDLKKHGNTVLTALGGILKKKGHHEAEVKHLAESHANKHKIPVKYLEFISDAIIHVLHAKHPSDFGADAQAAMSKALELFRNDMAAQYKVLGFHG"}, "B3": {"name": "full-length Y171F DevS (protein, UniProt P9WGK3 1-578, looked up, variant Y171F)", "chain": "MTTGGLVDENDGAAMRPLRHTLSQLRLHELLVEVQDRVEQIVEGRDRLDGLVEAMLVVTAGLDLEATLRAIVHSATSLVDARYGAMEVHDRQHRVLHFVYEGIDEETVRRIGHLPKGLGVIGLLIEDPKPLRLDDVSAHPASIGFPPYHPPMRTFLGVPVRVRDESFGTLFLTDKTNGQPFSDDDEVLVQALAAAAGIAVANARLYQQAKARQSWIEATRDIATELLSGTEPATVFRLVAAEALKLTAADAALVAVPVDEDMPAADVGELLVIETVGSAVASIVGRTIPVAGAVLREVFVNGIPRRVDRVDLEGLDELADAGPALLLPLRARGTVAGVVVVLSQGGPGAFTDEQLEMMAAFADQAALAWQLATSQRRMRELDVLTDRDRIARDLHDHVIQRLFAIGLALQGAVPHERNPEVQQRLSDVVDDLQDVIQEIRTTIYDLHGASQGITRLRQRIDAAVAQFADSGLRTSVQFVGPLSVVDSALADQAEAVVREAVSNAVRHAKASTLTVRVKVDDDLCIEVTDNGRGLPDEFTGSGLTNLRQRAEQAGGEFTLASVPGASGTVLRWSAPLSQ", "modifications": "full-length"}, "B4": {"name": "DevS: full length wild-type heme sensor kinase DevS of Mycobacterium tuberculosis (protein, UniProt P9WGK3 1-578, looked up)", "chain": "B3 chain with F171Y", "modifications": "full-length"}, "B5": {"name": "BjFixL: FixL gas sensor kinase (literature comparator) (protein, UniProt P23222 1-505, looked up)", "Sensor protein FixL": "MAPTRVTHPPDDGRGEHFRVRIEGFGVGTWDLDLKTWALDWSDTARTLLGIGQDQPASYDLFLSRLEPDDRERVESAIKRVSERGGGFDVSFRVAGTSNAGQWIRARAGLIRDEAGTARHLSGIFLDIDEEKQVEGALRTRETHLRSILHTIPDAMIVIDGHGIIQLFSTAAERLFGWSELEAIGQNVNILMPEPDRSRHDSYISRYRTTSDPHIIGIGRIVTGKRRDGTTFPMHLSIGEMQSGGEPYFTGFVRDLTEHQQTQARLQELQSELVHVSRLSAMGEMASALAHELNQPLAAISNYMKGSRRLLAGSSDPNTPKVESALDRAAEQALRAGQIIRRLRDFVARGESEKRVESLSKLIEEAGALGLAGAREQNVQLRFSLDPGADLVLADRVQIQQVLVNLFRNALEAMAQSQRRELVVTNTPAADDMIEVEVSDTGSGFQDDVIPNLFQTFFTTKDTGMGVGLSISRSIIEAHGGRMWAESNASGGATFRFTLPAADEN"}}, "key": {"[1]": {"conditions": "cited from earlier work"}, "[2]": {"experiment": "CO association and dissociation kinetics of DevS proteins, stopped flow", "type": "binding, Mycobacterium tuberculosis", "conditions": "4 °C; for Kd: read-out: CO Kd, from koff and kon; for CO koff / CO kon: stopped flow; for CO koff: displacement with air saturated buffer or NO solutions; for CO kon: phosphate buffer (50 mM) pH 7.5, 200 mM NaCl, 1 mM EDTA"}, "[3]": {"experiment": "Oxygen dissociation rates of DevS proteins, stopped flow", "type": "binding, Mycobacterium tuberculosis", "conditions": "read-out: O2 Kd; from koff and kon"}, "DevS kinase": {"test_system": "DevS kinase", "conditions": "cited from earlier work"}, "[4]": {"experiment": "Oxygen association rates of DevS proteins, laser flash photolysis", "type": "binding, Mycobacterium tuberculosis", "conditions": "pH 7.5 phosphate buffer (20 mM), 200 mM NaCl, 1 mM EDTA"}, "[5]": {"experiment": "Autooxidation of oxy-ferrous DevS proteins to the ferric", "type": "physicochemical, Mycobacterium tuberculosis", "conditions": "for autooxidation rate k / autooxidation t1/2: 25 °C"}, "[6]": {"conditions": "cited from earlier work", "remark": "listed apart in the source"}, "[7]": {"conditions": "cited from earlier work", "remark": "listed apart in the source"}, "[8]": {"conditions": "ferrous unligated form (5c complex)"}, "[9]": {"conditions": "ligand binding: O2 (oxy ferrous 6c species)"}, "[10]": {"conditions": "phosphate buffer (50 mM), pH 7.5, 1 mM EDTA and 200 mM NaCl"}, "[11]": {"conditions": "CaCl2 0.1 mM, hepes buffer (20 mM), pH 7.5, Chelex 100"}, "[12]": {"conditions": "CuCl2 10 µM, hepes buffer (20 mM), pH 7.5, Chelex 100"}, "[13]": {"conditions": "FeCl3 0.1 mM (nominal), hepes buffer (20 mM), pH 7.5, Chelex 100"}, "[14]": {"conditions": "KCl 200 mM, hepes buffer (20 mM), pH 7.5, pretreated with Chelex 100"}, "[15]": {"conditions": "MgCl2 1 mM, hepes buffer (20 mM), pH 7.5, Chelex 100"}, "[16]": {"conditions": "NaCl 200 mM, hepes buffer (20 mM), pH 7.5, Chelex 100"}}, "note": "Numbering of substitutions follows the chain as printed. Names may count otherwise. Where two headings read alike, the source gives them in different places."}
{"molecule": "B1", "values": [{"measurement": "autooxidation rate k", "setting": "[1]", "value": 0.7, "unit": "h⁻¹"}, {"measurement": "autooxidation t1/2", "setting": "[1]", "value": 1, "unit": "h"}]}
{"molecule": "B2", "values": [{"measurement": "autooxidation t1/2", "setting": "[1]; pH 9, 25 °C", "value": 63, "unit": "h"}]}
{"molecule": "B3", "values": [{"measurement": "Kd", "setting": "[2]", "value": 3.33, "unit": "µM"}, {"measurement": "CO koff", "setting": "[2]", "value": "2.43 ± 0.15 ^b s^−1"}, {"measurement": "CO kon", "setting": "[2]", "value": "0.73 ± 0.071 ^b µM^−1s^−1"}, {"measurement": "Kd", "setting": "[3]", "value": 0.12, "unit": "µM"}, {"measurement": "kinase activity", "setting": "DevS kinase; [8]", "value": "active"}, {"measurement": "kinase activity", "setting": "DevS kinase; [9]", "value": "inactive"}, {"measurement": "O2 kon", "setting": "[4]", "value": "32.4 ^a µM^−1s^−1"}, {"measurement": "autooxidation rate k", "setting": "[5]; [10]", "value": 0.012, "unit": "h⁻¹"}]}
{"molecule": "B4", "values": [{"measurement": "Kd", "setting": "[2]", "value": 8.29, "unit": "µM"}, {"measurement": "CO koff", "setting": "[2]", "value": "2.57 ± 0.40 ^b s^−1"}, {"measurement": "CO kon", "setting": "[2]", "value": "0.31 ± 0.031 ^b µM^−1s^−1"}, {"measurement": "autooxidation half life", "setting": "[1]; 37 °C, full length DevS from a slow expressing vector", "value": 4, "unit": "h"}, {"measurement": "Kd", "setting": "[3]", "value": 0.58, "unit": "µM"}, {"measurement": "kinase activity", "setting": "DevS kinase; [8]", "value": "active"}, {"measurement": "kinase activity", "setting": "DevS kinase; ferrous unligated form (5c complex), listed as wild-type DevS", "value": "intermediate kinase activity"}, {"measurement": "kinase activity", "setting": "DevS kinase; ligand binding: CO and NO", "value": "further activates the kinase"}, {"measurement": "kinase activity", "setting": "DevS kinase; [9]", "value": "inactive"}, {"measurement": "kinase activity", "setting": "DevS kinase; ligand binding: O2 (oxy ferrous 6c species), listed as wild-type DevS", "value": "completely inactivates it"}, {"measurement": "O2 kon", "setting": "[4]", "value": "11.8 ^a µM^−1s^−1"}, {"measurement": "autooxidation half life", "setting": "[5]; 0.1 mM Cu2+", "value": "less than 2 min"}, {"measurement": "autooxidation rate k", "setting": "[5]; [11]", "value": 0.0049, "unit": "h⁻¹"}, {"measurement": "autooxidation t1/2", "setting": "[5]; [11]", "value": 170, "unit": "h"}, {"measurement": "decrease of autooxidation rate on tenfold decrease in Cu2+ concentration", "setting": "[5]; Cu2+ from 100 to 10 µM", "value": "over 300 fold"}, {"measurement": "autooxidation rate k", "setting": "[5]; [12]", "value": 0.062, "unit": "h⁻¹"}, {"measurement": "autooxidation t1/2", "setting": "[5]; [12]", "value": 11, "unit": "h"}, {"measurement": "autooxidation rate k", "setting": "[5]; CuCl2 0.1 mM, hepes buffer (20 mM), pH 7.5, Chelex 100", "value": 25, "unit": "h⁻¹"}, {"measurement": "autooxidation rate k", "setting": "[5]; [13]", "value": 0.09, "unit": "h⁻¹"}, {"measurement": "autooxidation t1/2", "setting": "[5]; [13]", "value": 7.8, "unit": "h"}, {"measurement": "autooxidation rate k", "setting": "[5]; [14]", "value": 0.013, "unit": "h⁻¹"}, {"measurement": "autooxidation t1/2", "setting": "[5]; [14]", "value": 78, "unit": "h"}, {"measurement": "autooxidation rate k", "setting": "[5]; [15]", "value": 0.012, "unit": "h⁻¹"}, {"measurement": "autooxidation t1/2", "setting": "[5]; [15]", "value": 59, "unit": "h"}, {"measurement": "autooxidation rate k", "setting": "[5]; [16]", "value": 0.010, "unit": "h⁻¹"}, {"measurement": "autooxidation t1/2", "setting": "[5]; [16]", "value": 96, "unit": "h"}, {"measurement": "autooxidation rate k", "setting": "[5]; hepes 20 mM, pH 7.5, pretreated with Chelex 100, no added cation", "value": 0.0033, "unit": "h⁻¹"}, {"measurement": "autooxidation half-lives", "setting": "[5]; in the absence of Fe3+ and Cu2+", "value": "greater than one day"}, {"measurement": "autooxidation rates", "setting": "[5]; in the presence of K+, Na+, Mg2+, and Ca2+", "value": "0.005 to 0.02", "unit": "h⁻¹"}, {"measurement": "autooxidation rate k", "setting": "[5]; [10]", "value": 0.019, "unit": "h⁻¹"}, {"measurement": "autooxidation t1/2", "setting": "[5]; [10]", "value": "> 30", "unit": "h"}, {"measurement": "autooxidation t1/2", "setting": "[5]; phosphate buffer (50 mM), pH 7.5, 1 mM EDTA and 200 mM NaCl, listed as Full length wild-type DevS", "value": 73.6, "unit": "h"}]}
{"molecule": "B5", "values": [{"measurement": "O2 koff", "setting": "[6]", "value": 20, "unit": "s⁻¹"}, {"measurement": "O2 kon", "setting": "[6]", "value": 145000, "unit": "M⁻¹ s⁻¹"}, {"measurement": "Kd", "setting": "[6]; read-out: O2 Kd", "value": 138, "unit": "µM"}, {"measurement": "autooxidation rate k", "setting": "[1]; pH7, 37 °C", "value": 2.8, "unit": "h⁻¹"}, {"measurement": "autooxidation t1/2", "setting": "[1]; pH7, 37 °C", "value": 0.25, "unit": "h"}, {"measurement": "CO koff", "setting": "[7]", "value": 0.045, "unit": "s⁻¹"}, {"measurement": "CO kon", "setting": "[7]", "value": 5000, "unit": "M⁻¹ s⁻¹"}, {"measurement": "Kd", "setting": "[7]; read-out: CO Kd", "value": 9, "unit": "µM"}]}
